Assay results taken from patent US20100196310A1, “METHODS OF TREATING CANCER BY ADMINISTERING HUMAN IL-18 COMBINATIONS” (SMITHKLINE BEECHAM CORPORATION, priority 2007, published 2010).
Read-outs that look alike come from different tables or passages of the source.

Experiments:
[1] = system: EL-4 murine T-lymphoma cells; assay: IL-18 combination with doxorubicin in EL-4 T cell lymphoma (survival, increase in lifespan); type: in vivo, C57/BL/6 mice
Procedure: Studies were performed in female C57/BL/6 mice. As a general protocol, C57/BL mice were injected I.P. with 0.2 cc of stock EL-4 cells. EL-4 murine T-lymphoma cells were expanded in RPMI w/10% FCS. All animals were randomized to six or seven mice per study group with food and water ad libitum.
EL-4 cells were harvested on day 0, counted and implanted I.P. with 5×10^5 EL-4 lymphoma cells. Animals were randomized to treatment groups of 6/7 animals on Day 3. Doxorubicin was administered IV on Days 3 &10, pos-implantation. mIL-18 (SEQ ID NO:2) was administered S.C. on Days 3-16. The animals were observed daily for toxicity and mortality.
All animals tolerated dosing schedule and levels well by gross observation. On day 16, all dosing was terminated, and median vehicle death occurred on day 17.5. All vehicle mice expired between days 16-18 post-implantation. Increase in lifespan was calculated by study group/vehicle group—1×100%. For mIL-18 (SEQ ID NO:2) combination therapy with doxorubicin in EL-4 T cell lymphoma, the data were analyzed with respect to median survival time and increase in lifespan.

[2] = system: NK cells; assay: NK cytotoxicity assay in the EL-4 T-cell lymphoma model; details: FIG. 12; 21 hours post-treatment
[3] = cited from earlier work
[4] = system: murine colon carcinoma, Colo 26; assay: IL-18 and 5-FU combination therapy in syngeneic model of murine colon cancer Colo26; type: in vivo, BALB/c mice; details: monotherapy with 5-FU alone or mIL-18 alone
Procedure: This study aimed to evaluate the efficacy of mIL-18 (SEQ ID NO:2) combination therapy with 5-fluorouracil (5-FU), as compared to monotherapy with 5-FU, or mIL-18 (SEQ ID NO:2) alone. Our study was performed in a well established syngeneic subcutaneous model of murine colon carcinoma, Colo 26, in BALB/c mice. The dosing with mIL-18 (SEQ ID NO:2) was performed daily with 10 μg/mouse s.c. on days 10-30 after tumor inoculation. The dosing with 5-FU was performed i.p. twice a week in the ascending dose: 27, 45 and 74 μg/mouse.
The data comparing tumor volumes in different treatment groups were evaluated at a selected representative time-point, and were expressed as mean+/−SD (FIG. 21), and as median+/−range (FIG. 22). The data were first checked for normal distribution (Gaussian approximation), and standard deviation values were compared to make sure that there is an equal variance. […] Therefore, a non-parametric test (Kruskal-Wallis analysis and Dunn's comparison test) was used for the statistical evaluation. […] FIG. 24 (median+/−SD) and FIG. 25 (mean+/−SD) show the effect of IL-18 and 5-FU combination therapy in same Colo26 syngeneic colon tumor model. […]
Survival of mice bearing Colo26 in different treatment groups was plotted in a Kaplan-Meyer survival curve analysis, and evaluated by Logrank test, and is shown in FIG. 26. […]

[5] = system: MOPC-315 plasmacytoma; assay: IL-18 monotherapy in advanced MOPC-315 plasmacytoma model; type: in vivo, mice
[6] = system: NK cells

COc1cccc2c1C(=O)c1c(O)c3c(c(O)c1C2=O)C[C@@](O)(C(=O)CO)C[C@@H]3O[C@H]1C[C@H](N)[C@H](O)[C@H](C)O1 [doxorubicin, Doxorubicin, reference compound]
increase in lifespan ([1]; doxorubicin monotherapy, 12 mg/kg, IV days 3 & 10): minimal increase in lifespan
NK cytotoxicity [2]: impaired

human IL-18: recombinant mature form of human interleukin-18, expressed in a non-pathogenic strain of Escherichia coli
toxicity at the highest dose tested ([3]; 2000 μg/kg administered weekly for up to 24 weeks, patients with renal cell carcinoma and metastatic melanoma): no significant toxicity
maximum tolerated dose ([3]; doses up to 2000 μg/kg weekly for up to 24 weeks): not identified

O=c1[nH]cc(F)c(=O)[nH]1 [5-FU, 5-fluorouracil, reference compound]
therapeutic effect on tumor growth compared to control [4]: did not show a therapeutic effect better than a control

B1: mIL-18: Recombinant murine IL-18 (SEQ ID NO:2), used in the pre-clinical studies (protein)
chain: NFGRLHCTTAVIRNINDQVLFVDKRQPVFEDMTDIDQSASEPQTRLIIYMYKDSEVRGLAVTLSVKDSKMSTLSCKNKIISFEEMDPPENIDDIQSDLIFFQKRVPGHNKMEFESSLYEGHFLACQKEDDAFKLILKKKDENGDKSVMFTLTNLHQS
modifications: Murine
increase in lifespan ([1]; IL-18 monotherapy at 1, 5 and 25 ug/dose, S.C. days 3-16): did not show any increase in lifespan
therapeutic effect on tumor growth compared to control [4]: did not show a therapeutic effect better than a control
anti-tumor effect ([5]; advanced tumor, 5 mg/Kg daily for approximately 30 days): reproducible tumor regressions and cure
outcome of rechallenge with parental tumor ([5]; after cure by murine IL-18): tumor rejection
anti-tumor effect in SCID mice ([5]; severe combined immunodeficient mice bearing advanced MOPC-315 tumors, similar schedule): failed to regress
NK cytotoxicity [6]: robust NK cytotoxicity
